Test results reported in the DeepSol protein solubility set.

Test: soluble on expression in E. coli; label from the status in PepcDB or PDB records

Sequence | soluble on expression in E. coli
MKSLIDHFDIASAKVQSLVQETLHHADDGELYLEYTESETLLFDNRQLKNGSFHQDMGFGLRVVAGEATGYAHSSELSAAALKRASEAAKTVTYKNHAGPYSVAPQQTNKKLYQPHNPLNAPSFEEKSALLQKIDDYLRAKNDKLHQVTVSLSGSLQHVEILRADGNLVRDIRPLVRLSISVVAAEGNRRENGFYGCGGRQAFSQFISEENWKKAADEALRMALINLEAEAAPAGTFDVVLANGWPGVMLHEAVGHGLEGDFNRKKTSAFSGLLGQQVAAKGVTVVDDGTIPKCRGSLTIDDEGTPSGYNILIENGKLVGFMQDRLNARLMGVNPTGNGRRESYAYAPMPRMTNTIMLGGDKTPEEILSSLKSGIYAVSFGGGQVDITSGKFVFECTEAYRVENGKIVAPIKGATLIGNGPEAMKRITMIGNDSKLDNGIGTCGKAGQSVPVGVGQPHLRINNMTIGGTELT | not soluble
MAHHHHHHMSHEGAPQGEYVAILDAGSQYGKVIDRKVRELHVETSILSLNTPAEKLRNDANLKGIIISGGPSSVNDATSLAYDRAIFSMGKPVLGICYGMQMLTELYGGEVCRGKVREDGQDNIQVDTSSPIFAGLESTEAVLLTHGDSITAVGSELKVIARSSAGIISAVQHRSRPLFGVQFHPEVELTVSGKTIFKNFLQLCRCNFSFTMEDREAVALRLIRERTSGGQKVLCLASGGVDSTVCAVLLLKALGPERVVCIHIDHGFMRLNESVQAVEALNAAGVRVHLVKAQEDFAQASTEMTAKGSRAAYTTNKLREVTDPEEKRNIIGNTFMTVCDRVIKELQLDVENLLLAQGTLRPDLIESGSKYASVNAAAIKTHHNDTAVVRLLRDAGRIIEPLCDYHKDEVRELGARLGIPCRLLERQPFPGPGLAIRTLCTDGTPFRDGNFEDTQTTVKRVCMGADASSAEVAALAQKATLSACILPVRTVGVQGDGRTYAYAAALSMQTFPTAEQWATLIQLAKEIPKTAHAVNRVVFMFGPPQSESPSTVTPTYLTTDVLEKLRVADDKVNSILMKHQLVRSLSQVPIILIPIGFDKAGGYSVVVRTFLTNDFMTGIPATPGTAFMPLAVLEEIFNEVQKLEFVGRVMYDLTAKPPGTTEWE | not soluble
MKDRFELVSKYQPQGDQPKAIEKLVKGIQEGKKHQTLLGATGTGKTFTVSNLIKEVNKPTLVIAHNKTLAGQLYSEFKEFFPNNAVEYFVSYYDYYQPEAYVPQTDTFIEKDASINDEIDKLRHSATSALFERRDVIIIASVSCIYGLGSPEEYREMVVSLRTEMEIERNELLRKLVDIQYARNDIDFQRGTFRVRGDVVEIFPASRDEHCVRVEFFGDEIERIREVDALTGEILGDRDHVAIFPASHFVTRAEKMEKAIQNIEKELEEQLKVMHENGKLLEAQRLEQRTRYDLEMMREMGFCSGIENYSRHLTLRPPGSTPYTLLDYFPDDFMIVVDESHVTIPQVRGMFNGDQARKQVLVDHGFRLPSALDNRPLRFEEFEKHMHNIVYVSATPGPYEIEHTDEMVEQIIRPTGLLDPLIDVRPIEGQIDDLIGEIQARIERNERVLVTTLTKKMSEDLTDYLKEIGIKVNYLHSEIKTLERIEIIRDLRLGKYDVLVGINLLREGLDIPEVSLVAILDADKEGFLRSERSLIQTIGRAARNAEGRVIMYADKITKSMEIAINETKRRREQQERFNEEHGITPKTINKEIRDVIRATVAAEDKAEYKTKAAPKLSKMTKKERQKVVEQMEHEMKEAAKALDFERAAELRDLLLELKAEG | soluble
MDFYYPNLNNDMWRIVGLLFFGDKDHFLNDTRKAFCREQIIDFLNEKGIALFDTASSIRRLQDNASDKFLEVVQPTDIAALLRQLPECRAIVTTGQKATDTLRAQLEVEEPKVGDYAEFVFEGRAMRLYRMPSSSRAYPLALDKKAAAYRIMYQDLQMVILEHHHHHH | soluble
MAIPAFHPGELNVYSAPGDVADVSRALRLTGRRVMLVPTMGALHEGHLALVRAAKRVPGSVVVVSIFVNPMQFGAGGDLDAYPRTPDDDLAQLRAEGVEIAFTPTTAAMYPDGLRTTVQPGPLAAELEGGPRPTHFAGVLTVVLKLLQIVRPDRVFFGEKDYQQLVLIRQLVADFNLDVAVVGVPTVREADGLAMSSRNRYLDPAQRAAAVALSAALTAAAHAATAGAQAALDAARAVLDAAPGVAVDYLELRDIGLGPMPLNGSGRLLVAARLGTTRLLDNIAIEIGTFAGTDRPDGYRA | soluble
MNRFILSAFLLVAIFAISDAAVAQQQVKDGEKVEIDAFKGAKAIKRTVAGGDQIFHLDGDNKGSFVDAKGKKIESTNYEANNGILIIKKFTKADVGTYSEHPAKNTETKHADGSISAVPGLTLDISLQ | soluble
